B1: full-length RspWYL1 (Ruminococcus sp. WYL1, amino acids 1–392) (natural protein)
chain: MLIPPSTFLPKRDKNVPYIAEVQSIPLSPSAYSVIIKDKSIFETSLSPNGSVSMSSFLTSIFDSAYIASLKYKSDDNYKYIGIPLLNAFVEWQIEEIDDSLDDKSKEIIKSYLISKLSAKYEKTKTENAVRVRLSICRDLYDTLSSDDLYYENKVYSLTLRRFLKAVYEDYALLSDCERERLIFADNIIKINEVIKQNGSRYYSFIYAYSNMYSREKRRIRLIPYRIVSDEYKMYNYLVCLSDEKSAGKEFKADSYRISRLSGLSIAEKLSQKEYSSVTEYERLKEGHVKSVKHLLSDPRFGSDESDISKVYLTEKGVEMFRKILYQRPILKGNEKPKPNTVNEFISPPIQVKYYFNKFGKDGVILSPSDSFEEMRTLYVEGADAYNREVEM
modifications: apo (no crRNA); full length assumed, since limits are not given; 954 aa matches the known EsCas13d length
B2: full-length RspWYL1 (Ruminococcus sp. WYL1, amino acids 1–392) (natural protein)
chain: B1 chain

Columns and labels:
EsCas13d = target: T1, EsCas13d ([Eubacterium] siraeum DSM 15702); experiment: ITC
T1 chain: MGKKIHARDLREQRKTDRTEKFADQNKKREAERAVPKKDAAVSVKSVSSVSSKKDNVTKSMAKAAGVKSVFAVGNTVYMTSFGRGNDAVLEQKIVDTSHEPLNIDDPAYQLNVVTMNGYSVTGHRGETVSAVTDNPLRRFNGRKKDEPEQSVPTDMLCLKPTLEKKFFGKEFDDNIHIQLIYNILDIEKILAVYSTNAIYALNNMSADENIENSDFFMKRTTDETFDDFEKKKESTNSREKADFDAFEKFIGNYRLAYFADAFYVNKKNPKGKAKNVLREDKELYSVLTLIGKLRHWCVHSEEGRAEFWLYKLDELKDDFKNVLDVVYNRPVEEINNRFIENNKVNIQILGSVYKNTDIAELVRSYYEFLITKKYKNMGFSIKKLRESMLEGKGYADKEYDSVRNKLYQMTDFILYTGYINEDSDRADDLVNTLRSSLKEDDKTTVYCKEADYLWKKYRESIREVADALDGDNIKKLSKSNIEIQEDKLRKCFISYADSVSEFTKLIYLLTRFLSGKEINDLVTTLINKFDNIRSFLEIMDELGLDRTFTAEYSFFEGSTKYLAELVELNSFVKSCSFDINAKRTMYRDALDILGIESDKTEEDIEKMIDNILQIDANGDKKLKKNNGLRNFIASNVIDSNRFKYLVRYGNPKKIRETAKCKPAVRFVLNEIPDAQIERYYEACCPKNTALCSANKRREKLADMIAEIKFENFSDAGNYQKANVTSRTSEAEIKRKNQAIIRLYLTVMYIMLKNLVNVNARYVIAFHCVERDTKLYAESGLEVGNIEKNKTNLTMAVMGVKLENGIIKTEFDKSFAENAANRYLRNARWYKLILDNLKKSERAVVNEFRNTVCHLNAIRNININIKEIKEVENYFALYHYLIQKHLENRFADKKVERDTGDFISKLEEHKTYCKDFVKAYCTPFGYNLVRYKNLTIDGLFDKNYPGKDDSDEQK

RspCas13d = RspCas13d (Ruminococcus sp. (from the prefix Rsp, …)); experiment: ITC

Binder | Kd (EsCas13d) [µM] | Kd (RspCas13d) [µM]
B1 | ~270 | –
B2 | – | ~250

From article PMC6547453 (2019)
